Laboratory results from publication doi:10.1101/2020.03.19.999276 (bioRxiv, 2020).

B1: purified human TRPA1 (hTRPA1) (natural protein, UniProt O75762 1-1119, looked up)
chain: MKRSLRKMWRPGEKKEPQGVVYEDVPDDTEDFKESLKVVFEGSAYGLQNFNKQKKLKRCDDMDTFFLHYAAAEGQIELMEKITRDSSLEVLHEMDDYGNTPLHCAVEKNQIESVKFLLSRGANPNLRNFNMMAPLHIAVQGMNNEVMKVLLEHRTIDVNLEGENGNTAVIIACTTNNSEALQILLKKGAKPCKSNKWGCFPIHQAAFSGSKECMEIILRFGEEHGYSRQLHINFMNNGKATPLHLAVQNGDLEMIKMCLDNGAQIDPVEKGRCTAIHFAATQGATEIVKLMISSYSGSVDIVNTTDGCHETMLHRASLFDHHELADYLISVGADINKIDSEGRSPLILATASASWNIVNLLLSKGAQVDIKDNFGRNFLHLTVQQPYGLKNLRPEFMQMQQIKELVMDEDNDGCTPLHYACRQGGPGSVNNLLGFNVSIHSKSKDKKSPLHFAASYGRINTCQRLLQDISDTRLLNEGDLHGMTPLHLAAKNGHDKVVQLLLKKGALFLSDHNGWTALHHASMGGYTQTMKVILDTNLKCTDRLDEDGNTALHFAAREGHAKAVALLLSHNADIVLNKQQASFLHLALHNKRKEVVLTIIRSKRWDECLKIFSHNSPGNKCPITEMIEYLPECMKVLLDFCMLHSTEDKSCRDYYIEYNFKYLQCPLEFTKKTPTQDVIYEPLTALNAMVQNNRIELLNHPVCKEYLLMKWLAYGFRAHMMNLGSYCLGLIPMTILVVNIKPGMAFNSTGIINETSDHSEILDTTNSYLIKTCMILVFLSSIFGYCKEAGQIFQQKRNYFMDISNVLEWIIYTTGIIFVLPLFVEIPAHLQWQCGAIAVYFYWMNFLLYLQRFENCGIFIVMLEVILKTLLRSTVVFIFLLLAFGLSFYILLNLQDPFSSPLLSIIQTFSMMLGDINYRESFLEPYLRNELAHPVLSFAQLVSFTIFVPIVLMNLLIGLAVGDIAEVQKHASLKRIAMQVELHTSLEKKLPLWFLRKVDQKSTIVYPNKPRSGGMLFHIFCFLFCTGEIRQEIPNADKSLEMEILKQKYRLKDLTFLLEKQHELIKLIIQKMEIISETEDDDSHCSFQDRFKKEQMEQRNSRWNTVLRAVKAKTHHLEP
modifications: Ni-NTA Atto647N on the N-terminal His-tag (labeled copies in FCS)
B2: Δ1-688 hTRPA1 (hTRPA1 without its N-terminal ankyrin repeat domain) (domain or fragment, human, UniProt O75762 689-1119, looked up)
chain: MVQNNRIELLNHPVCKEYLLMKWLAYGFRAHMMNLGSYCLGLIPMTILVVNIKPGMAFNSTGIINETSDHSEILDTTNSYLIKTCMILVFLSSIFGYCKEAGQIFQQKRNYFMDISNVLEWIIYTTGIIFVLPLFVEIPAHLQWQCGAIAVYFYWMNFLLYLQRFENCGIFIVMLEVILKTLLRSTVVFIFLLLAFGLSFYILLNLQDPFSSPLLSIIQTFSMMLGDINYRESFLEPYLRNELAHPVLSFAQLVSFTIFVPIVLMNLLIGLAVGDIAEVQKHASLKRIAMQVELHTSLEKKLPLWFLRKVDQKSTIVYPNKPRSGGMLFHIFCFLFCTGEIRQEIPNADKSLEMEILKQKYRLKDLTFLLEKQHELIKLIIQKMEIISETEDDDSHCSFQDRFKKEQMEQRNSRWNTVLRAVKAKTHHLEP
modifications: Ni-NTA Atto647N on the N-terminal His-tag (labeled copies in FCS)

Target: the molecule itself
Test: fluorescence correlation spectroscopy

Protein	stoichiometry N
B1	4
B2	4
